Residues, ends and D or L forms follow the SMILES beside them. *: point of attachment. X1 = CC(=O)O[C@@]12CO[C@@H]1C[C@H](O)[C@@]1(C)C(=O)[C@H](O)C3=C(C)[C@@H](OC(=O)[C@H](OC(=O)CCC(=O)*)[C@@H](NC(=O)OC(C)(C)C)c4ccccc4)C[C@@](O)([C@@H](OC(=O)c4ccccc4)[C@H]21)C3(C)C; Biotin = O=C1N[C@H]2[C@H](CS[C@H]2CCCCC(=O)*)N1
What was measured:
sortilin = biological target: T1, sortilin (Homo sapiens, UniProt Q99523); experiment: biochemical; assay type: binding; settings: read-out: ka
T1 construct: Increasing concentrations of a soluble form of sortilin was then injected over the sensor chip
T1 sequence (Q99523 78-755 limits assumed): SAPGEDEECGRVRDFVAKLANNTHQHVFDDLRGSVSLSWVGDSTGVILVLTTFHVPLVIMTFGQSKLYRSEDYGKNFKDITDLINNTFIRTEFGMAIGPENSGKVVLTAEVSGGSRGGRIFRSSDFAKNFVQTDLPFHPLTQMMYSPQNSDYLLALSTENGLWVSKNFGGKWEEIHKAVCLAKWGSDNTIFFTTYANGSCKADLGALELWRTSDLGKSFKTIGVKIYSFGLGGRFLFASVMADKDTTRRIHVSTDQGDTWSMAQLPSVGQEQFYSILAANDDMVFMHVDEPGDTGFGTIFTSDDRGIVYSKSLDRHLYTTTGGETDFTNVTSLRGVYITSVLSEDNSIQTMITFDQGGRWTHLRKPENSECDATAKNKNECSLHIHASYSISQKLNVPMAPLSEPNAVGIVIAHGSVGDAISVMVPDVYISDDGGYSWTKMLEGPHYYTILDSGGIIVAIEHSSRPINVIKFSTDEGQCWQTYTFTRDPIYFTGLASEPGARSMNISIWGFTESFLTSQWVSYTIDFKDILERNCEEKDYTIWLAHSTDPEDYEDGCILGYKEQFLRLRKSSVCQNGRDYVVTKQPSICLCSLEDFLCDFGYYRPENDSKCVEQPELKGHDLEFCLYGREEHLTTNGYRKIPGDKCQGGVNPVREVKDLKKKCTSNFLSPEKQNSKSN
Protocol: Biotinylated Katana peptide was immobilized on a streptavidin sensor chip. A. Soluble sortilin was then injected over the immobilized peptide. The surface plasmon resonance signal was then monitored over time.
Surface plasmon resonance (SPR) was first used to investigate whether these peptides could be recognized by sortilin. For this approach, biotin was added on the C-terminal end of the Katana-Biopharma peptide during peptide synthesis. The biotinylated-peptide (KBP-103) was then immobilized on a streptavidin sensor chip using recommended procedures from the manufacturer. Increasing concentrations of a soluble form of sortilin was then injected over the sensor chip. Interactions between immobilized KBP-103 and the receptor sortilin was then monitored in real time. A representative interaction curve is shown in FIG. 1, and from the sensorgram curves the affinity constant as well as Ka and Kd were determined and are indicated in Table 2. Affinity constants (KD, Ka and […]) were extracted from various injections using the BIA evaluation software.

[1] = test system: ES-2 ovarian cancer cells; experiment: [3H]-Thymidine incorporation cell proliferation assay, ES-2; assay type: cell-based; settings: ES-2 (Ovary); Table 4; 2 or 3 days
Protocol: (§1) The effect of the Docetaxel-Katana peptide conjugate on various cell line proliferations was evaluated and compared to unconjugated Docetaxel (Table 4). IC50 values obtained for the Docetaxel-Katana peptide conjugate were very similar to those of Docetaxel in the cancer cells tested.
(§2) The phytochemical Curcumin, unconjugated and conjugated, was also tested on cancer cell proliferation (FIG. 28). Breast cancer cells (MDA-MB231) were incubated with increasing concentrations of KBC106 or curcumin. After 72 hrs, thymidine incorporation assay was performed to assess the anti-proliferative properties of both molecules. IC50 values were extracted from the anti-proliferative curves. […] Proliferation assay was also performed using different types of cancer cells (ovarian, breast, skin and colorectal cancer cells). IC50 values were calculated from the anti-proliferation curves. In all cases, the Curcumin conjugate (KBC106) had stronger anti-proliferative activity (9-100 fold) than unconjugated Curcumin, as shown in Table 6 below.
(§3) Cancer cells were cultured in 96-well white plates (Perkin Elmer). They were synchronized for 24 hours in serum-deprived medium. After incubation of cells with unconjugated drugs (docetaxel, cabazitaxel, doxorubicin) or with drug-Katana peptide conjugates for 2 or 3 days, all media was aspirated and cells were pulse-labeled for 4 hours at 37° C./[…]/5% CO2 with media containing 2.5 μCi/mL [methyl-3H] thymidine (Perkin Elmer). Cells were washed, fixed, and dried before addition of scintillation fluid (Microscint 0, Perkin Elmer). After 24 hours, cell-associated tritium was quantified by counting on a plate reader (TopCount, Perkin Elmer). Incorporated [3H] thymidine was plotted for each drug concentration.

A-375 skin cancer cells = experiment: [3H]-Thymidine incorporation cell proliferation assay, A-375; assay type: cell-based; settings: A-375 (Skin); Table 4; 2 or 3 days
Protocol: as §1, §2, §3

[2] = test system: MDA-MB-231 breast cancer cells; experiment: cells; settings: MDA-MB-231 (Breast); Table 4; 2 or 3 days
Protocol: Breast cancer cells (MDA-MB231) were incubated with increasing concentrations of KBC106 or curcumin. After 72 hrs, thymidine incorporation assay was performed to assess the anti-proliferative properties of both molecules. IC50 values were extracted from the anti-proliferative curves.
as §2, with “curves.” for “curves. In all cases, the Curcumin conjugate (KBC106) had stronger anti-proliferative activity (9-100 fold) than unconjugated Curcumin, as shown in Table 6 below.”
as §3

[3] = Tissue distribution of radiolabeled compounds in mice
Protocol: CD-1 mice were injected with the radiolabeled conjugate at 5 mg/kg via iv bolus injections (21A) or […] of radiolabeled Docetaxel (21B). At the indicated times (1 h, 6 h, 24 h) mice were sacrificed and perfused with saline for 8 min. Tissues were then collected and radioactivity was measured. Results are expressed in terms of ng/g of tissue.
At the indicated times (1, 6 and 24 hours), whole body perfusion was performed for 8 min with saline at a flow rate of 8 ml/min after […] hours iv bolus injections.
After radiolabeling free iodine was remove. Mice were injected with Docetaxel-[^125I]-Katana peptide conjugate at 5 mg/kg. Plasma was collected at the indicated times. After 1, 2 and 24 hours some mice were perfused with saline, sacrificed and tissues were collected. Radioactivity in the plasma and tissues were measured in a radioactivity counter and results were calculated and expressed in terms of […] for the plasma or ng/g of tissues.

SKOV3 cancer cells = experiment: SKOV3 luciferase subcutaneous xenograft tumour model (Docetaxel, KBA-105); settings: mice, treatments at 20 mg/kg/week as printed (equivalent dose of Docetaxel)
Protocol: Mice were implanted in the flank with SKOV3 cancer cells. Tumor growth was monitored by luminescence using the Near Infrared imaging system from Carestream.
Results are expressed in terms of luminescence intensity as a function of post-treatment days.
To further evaluate the in vivo efficacy of the Katana-drug conjugate, SKOV3 cancer cells expressing luciferase were implanted in the mouse flank. […] Tumour imaging was performed on different days by injecting the luciferase substrate luciferin and by using the Xtreme imaging system from Carestream.
Luminescence was then quantified and plotted as a function of days after implantation (FIG. 23).
SKOV3 cancer cells (2.5×10^6 cells) expressing luciferase were implanted in the right flank of mice. Tumour growth was monitored using near infrared (NiR) imaging system from Carestream by injecting the luciferase substrate luciferin. […] Luminescence associated with tumour growth of SKOV3/Luc cancer cells was quantified as a function of post-treatment days with the instrument software.

P-gp (MDR1) = P-gp (MDR1) (Homo sapiens, UniProt P08183); experiment: Drug accumulation in MDCK-MDR1 cells with or without Cyclosporin A; settings: 50 nM, 1 hr, 37° C., CsA 10 μM
Protocol: 6A. […] 6B. MDCK-MDR1 cells were incubated with 50 nM of either [^14C]-Doxorubicin or [^125I]-Katana peptide-Doxorubicin conjugate (KBB106) for 1 hr at 37° C. in the presence or absence of CsA (10 μM). After the incubation, cells were washed and radioactivity accumulated in cells was quantified. The results were expressed in terms of uptake fmol/mg of protein.
In order to determine whether the anticancer drug-Katana-peptide conjugates could also be P-gp substrates, MDCK-transfected cells with human MDR1 were used (MDCK-MDR1).
Cells were washed three times with PBS and preincubated for 30 min at 37° C. in culture medium without serum with or without the P-gp inhibitor Cyclosporin A (10 μM). Radiolabelled molecules (50 nM) were then added for 60 min. The cells were rapidly washed three times with ice-cold PBS and then lysed in 500 µL of 0.1 M NaOH. The amount of radiolabelled molecules retained in the cells was counted by β-scintillation counting (Packard model 1900 TR). An aliquot of cell lysate was used in parallel to determine cellular protein concentration.

[4] = Plasma pharmacokinetics of radiolabeled compounds in mice; assay type: in vivo; settings: mice iv, Docetaxel 2.2 mg/kg, KBA105 5 mg/kg
Protocol: FIG. 20 is a graph showing concentration of unconjugated and conjugated Docetaxel as a function of time. Mice were injected iv with radiolabeled [^3H]-Docetaxel or radiolabeled [^125I]-KBA105 at an equivalent dose of Docetaxel (Docetaxel=2.2 mg/kg; KBA105=5 mg/kg). Plasma samples were collected at different time points and radioactivity quantified. Results are expressed in terms of KBA105 or Docetaxel concentration in plasma as a function of time. Area under the curve for the time period (AUC1-24) was estimated for KBA105 and Docetaxel using GraphPad Prism software. Ratio between AUC1-24 for KBA105 and Docetaxel was calculated to be around 35.
To evaluate the impact of the drug conjugation to Katana Biopharma peptide on drug pharmacokinetics and tissue distribution, mice were injected with [^125I]-Docetaxel-Katana peptide conjugate. Plasma was collected at different times (FIG. 19A). Radioactivity associated with plasma was quantified and pharmacokinetic parameters were determined. […] In FIG. 20, plasma concentration of Docetaxel-Katana peptide conjugate was compared to that of unconjugated Docetaxel after iv bolus injection.
After radiolabeling free iodine was remove. […] Plasma was collected at the indicated times.

[5] = test system: SK-MEL-28 skin cancer cells; experiment: [3H]-Thymidine incorporation cell proliferation assay, SK-MEL-28; assay type: cell-based; settings: SK-MEL-28 (Skin); Table 4; 2 or 3 days
Protocol: as §1, §2, §3

P-gp (MDR1), sequence (P08183 whole entry): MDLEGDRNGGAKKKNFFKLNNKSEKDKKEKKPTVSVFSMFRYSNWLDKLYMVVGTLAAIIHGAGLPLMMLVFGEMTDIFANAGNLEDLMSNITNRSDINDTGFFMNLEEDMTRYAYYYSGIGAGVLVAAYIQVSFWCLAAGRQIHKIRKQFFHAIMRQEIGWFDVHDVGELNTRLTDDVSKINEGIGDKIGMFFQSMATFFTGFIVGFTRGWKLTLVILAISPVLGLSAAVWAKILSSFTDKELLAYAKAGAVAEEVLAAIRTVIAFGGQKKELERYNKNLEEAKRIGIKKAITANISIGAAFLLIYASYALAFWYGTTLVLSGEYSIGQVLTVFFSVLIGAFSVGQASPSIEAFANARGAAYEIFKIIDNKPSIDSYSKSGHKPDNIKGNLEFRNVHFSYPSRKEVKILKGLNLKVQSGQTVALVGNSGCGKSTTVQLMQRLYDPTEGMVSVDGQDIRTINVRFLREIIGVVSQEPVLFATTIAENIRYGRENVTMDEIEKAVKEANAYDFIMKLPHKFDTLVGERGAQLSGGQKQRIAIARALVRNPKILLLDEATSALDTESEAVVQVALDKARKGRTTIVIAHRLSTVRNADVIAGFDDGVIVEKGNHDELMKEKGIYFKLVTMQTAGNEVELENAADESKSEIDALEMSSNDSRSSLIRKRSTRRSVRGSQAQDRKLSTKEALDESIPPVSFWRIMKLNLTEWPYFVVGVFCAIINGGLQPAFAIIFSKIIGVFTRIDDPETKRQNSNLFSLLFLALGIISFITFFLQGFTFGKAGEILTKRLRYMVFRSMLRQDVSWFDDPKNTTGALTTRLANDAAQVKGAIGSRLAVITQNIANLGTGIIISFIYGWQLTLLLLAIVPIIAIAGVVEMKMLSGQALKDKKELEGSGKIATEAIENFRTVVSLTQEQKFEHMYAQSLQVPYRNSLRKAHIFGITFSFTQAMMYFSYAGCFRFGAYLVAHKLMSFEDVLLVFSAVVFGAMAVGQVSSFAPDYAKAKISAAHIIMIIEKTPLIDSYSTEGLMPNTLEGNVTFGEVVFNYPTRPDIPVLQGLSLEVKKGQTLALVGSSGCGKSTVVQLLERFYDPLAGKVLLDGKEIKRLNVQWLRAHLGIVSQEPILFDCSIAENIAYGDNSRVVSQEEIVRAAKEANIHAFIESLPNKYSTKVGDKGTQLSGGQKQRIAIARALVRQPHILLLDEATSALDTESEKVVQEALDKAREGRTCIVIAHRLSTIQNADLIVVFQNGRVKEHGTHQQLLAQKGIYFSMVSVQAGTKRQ

CC[C@H](C)[C@H](N)C(=O)N[C@@H](CCCCN)C(=O)N[C@@H](CC(C)C)C(=O)N[C@@H](CO)C(=O)NCC(=O)NCC(=O)N[C@H](C(=O)N[C@@H](CCC(N)=O)C(=O)N[C@@H](C)C(=O)N[C@@H](CCCCN)C(=O)N[C@@H](C)C(=O)NCC(=O)N[C@H](C(=O)N[C@H](C(=O)N[C@@H](CC(N)=O)C(=O)N[C@@H](CCSC)C(=O)N[C@@H](Cc1ccccc1)C(=O)N[C@@H](CCCCN)C(=O)N[C@@H](CO)C(=O)N[C@@H](CCC(=O)O)C(=O)N[C@@H](CO)C(=O)N[C@@H](Cc1ccc(O)cc1)C(=O)N[C@@H](CCCCNC(=O)CCCC[C@@H]1SC[C@@H]2NC(=O)N[C@@H]21)C(=O)O)[C@@H](C)CC)C(C)C)C(C)C [KBP-103] (H-IKLSGGVQAKAGVINMFKSESYK(Biotin)-OH)
kon (sortilin): 683000 M⁻¹ s⁻¹

CSCC[C@H](NC(=O)[C@H](CC(N)=O)NC(=O)[C@H](CCCNC(=N)N)NC(=O)[C@@H](NC(=O)CNC(=O)[C@H](C)NC(=O)[C@H](CCCCNC(=O)CCC(=O)O[C@@H](C(=O)O[C@H]1C[C@@]2(O)[C@@H](OC(=O)c3ccccc3)[C@@H]3[C@]4(OC(C)=O)CO[C@@H]4C[C@H](O)[C@@]3(C)C(=O)[C@H](O)C(=C1C)C2(C)C)[C@@H](NC(=O)OC(C)(C)C)c1ccccc1)NC(=O)[C@H](C)NC(=O)[C@H](CCCNC(=N)N)NC(=O)[C@@H](NC(=O)CNC(C)=O)C(C)C)C(C)C)C(=O)N[C@@H](Cc1ccccc1)C(=O)N[C@@H](CCCCNC(=O)CCC(=O)O[C@@H](C(=O)O[C@H]1C[C@@]2(O)[C@@H](OC(=O)c3ccccc3)[C@@H]3[C@]4(OC(C)=O)CO[C@@H]4C[C@H](O)[C@@]3(C)C(=O)[C@H](O)C(=C1C)C2(C)C)[C@@H](NC(=O)OC(C)(C)C)c1ccccc1)C(=O)N[C@@H](CO)C(=O)N[C@@H](CCC(=O)O)C(=O)N[C@@H](CO)C(=O)N[C@@H](Cc1ccc(O)cc1)C(=O)O [KBA-105] (Ac-GVRAK(X1)AGVRNMFK(X1)SESY-OH; C-terminus assumed)
IC50 [1]: 0.7 nM | IC50 (A-375 skin cancer cells): 0.43 nM | IC50 [2]: 1.03 nM | Ratio (Estimated Docetaxel/Docetaxel) (AUC1-24) ([3]; Brain): 21.3 | Ratio KBA105/Docetaxel (AUC1-24) ([3]; Brain): 48.3 | Ratio (Estimated Docetaxel/Docetaxel) (AUC1-24) ([3]; Heart): 4.5 | Ratio KBA105/Docetaxel (AUC1-24) ([3]; Heart): 10.3 | Ratio (Estimated Docetaxel/Docetaxel) (AUC1-24) ([3]; Kidney): 5.3 | Ratio KBA105/Docetaxel (AUC1-24) ([3]; Kidney): 12.0 | Ratio (Estimated Docetaxel/Docetaxel) (AUC1-24) ([3]; Liver): 26.4 | Ratio KBA105/Docetaxel (AUC1-24) ([3]; Liver): 60 | Ratio (Estimated Docetaxel/Docetaxel) (AUC1-24) ([3]; Lung): 221 | Ratio KBA105/Docetaxel (AUC1-24) ([3]; Lung): 500 | Ratio (Estimated Docetaxel/Docetaxel) (AUC1-24) ([3]; Mammary): 1.5 | Ratio KBA105/Docetaxel (AUC1-24) ([3]; Mammary): 3.3 | Ratio (Estimated Docetaxel/Docetaxel) (AUC1-24) ([3]; Ovary): 0.7 | Ratio KBA105/Docetaxel (AUC1-24) ([3]; Ovary): 1.6 | Ratio (Estimated Docetaxel/Docetaxel) (AUC1-24) ([3]; Spleen): 25.0 | Ratio KBA105/Docetaxel (AUC1-24) ([3]; Spleen): 24.9 | effect on body weight (SKOV3 cancer cells): unaffected | effect of CsA on accumulation (P-gp (MDR1)): lack of CsA effect | Ratio between AUC1-24 for KBA105 and Docetaxel [4]: around 35 | IC50 [5]: 0.09 nM
